Source: patent publication US20240398906A1 (YEDA RESEARCH AND DEVELOPMENT, published 2024)
“And” between values parts separate entries of the source, which are not always exact repeats. Equal entries are not always repeated.

T1: recombinant catalytic domain of human LOX (169-417) (human, UniProt P28300 169-417)
T1 construct: also called LOX-catalytic domain; recombinant LOX
T1 sequence: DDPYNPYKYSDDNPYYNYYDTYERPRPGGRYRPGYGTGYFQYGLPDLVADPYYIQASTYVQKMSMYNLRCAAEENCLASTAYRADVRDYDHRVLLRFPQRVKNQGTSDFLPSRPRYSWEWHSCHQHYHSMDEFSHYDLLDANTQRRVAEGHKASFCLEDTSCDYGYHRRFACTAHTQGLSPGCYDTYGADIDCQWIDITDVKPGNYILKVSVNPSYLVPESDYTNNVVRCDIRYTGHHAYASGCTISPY


Assays:
[1] = target: T1, recombinant catalytic domain of human …; test: ELISA, plate coated with LOX catalytic domain, detection with anti-human peroxidase antibody
Experimental: (§1) ELISA binding assay: A ninety-six-well plate (Nunc) was coated with LOX-catalytic domain, HSP70 or BSA at 10 μg/ml. After blocking with 2% BSA in PBS, the plate was incubated with the antibodies for 1 h at 37° C. Bound antibodies were detected by peroxidase-conjugated antibody goat anti-human (Jackson ImmunoResearch). EC₅₀ was calculated with GraphPad Prism from […] curve fitting analysis.

recombinant HSP70 = target: T2, recombinant HSP70 (UniProt P0DMV8 1-641, limits assumed); test: ELISA, plate coated with recombinant HSP70, detection with anti-human peroxidase antibody
T2 construct: Purified on a HisTrap column; also called heat shock protein 70
T2 sequence (P0DMV8 whole entry): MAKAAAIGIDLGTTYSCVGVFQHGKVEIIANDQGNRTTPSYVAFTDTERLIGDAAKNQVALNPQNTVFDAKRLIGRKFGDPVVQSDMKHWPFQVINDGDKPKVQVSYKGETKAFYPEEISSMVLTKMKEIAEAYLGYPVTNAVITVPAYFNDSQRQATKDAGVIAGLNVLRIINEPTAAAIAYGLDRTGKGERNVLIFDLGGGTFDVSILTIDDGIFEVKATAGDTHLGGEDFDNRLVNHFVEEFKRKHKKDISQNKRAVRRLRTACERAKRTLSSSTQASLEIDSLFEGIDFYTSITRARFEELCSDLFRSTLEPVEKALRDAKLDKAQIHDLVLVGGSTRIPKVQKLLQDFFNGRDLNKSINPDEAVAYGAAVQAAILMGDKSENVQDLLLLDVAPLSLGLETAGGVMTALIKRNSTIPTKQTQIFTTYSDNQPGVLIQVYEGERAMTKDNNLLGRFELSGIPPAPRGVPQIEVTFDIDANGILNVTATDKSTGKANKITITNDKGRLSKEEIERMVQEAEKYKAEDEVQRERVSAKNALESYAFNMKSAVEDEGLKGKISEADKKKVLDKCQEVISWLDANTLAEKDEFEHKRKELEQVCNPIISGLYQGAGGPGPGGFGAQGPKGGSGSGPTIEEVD
Experimental: as §1

[2] = target: T1, recombinant catalytic domain of human …; test: binding affinity against LOX; ELISA according to paragraph 88
[3] = target: T1, recombinant catalytic domain of human …; test: dissociation constant against LOX; microscale thermophoresis according to paragraph 89

EC50 [1] [nM] | EC50 (recombinant HSP70) [nM] | EC50 [2] | Kd [3] [nM] | Binder
43 | 41 | – | – | AS1 (glycosylated LOX-PP fused to human IgG1 Fc) (Fc fusion, N-glycosylated on N81, N97 and N144 (precursor numbering; positions 60, 76 and 123 of the piece). Disulfide-linked dimer through the Fc hinge., also called AS1 decoy; not shown: Human IgG1 Fc (hinge-CH2-CH3), its orientation relative to LOX-PP and any linker) APPAAGQQQPPREPPAAPGAWRQQIQWENNGQVFSLLSLGSQYQPQRRRDPGAAVPGAANASAQQPRTPILLIRDNRTAAARTRTAGSSGVTAGRPRPTARHWFQAGYSTSRAREAGASRAENQTAPGEVPALSNLRPPSRVDGMVG
– | – | 40 nM and 43 nM | 32 | Fc-LPD (Fc fusion) APPAAGQQQPPREPPAAPGAWRQQIQWENNGQVFSLLSLGSQYQPQRRRDPGAAVPGAANASAQQPRTPILLIRDNRTAAARTRTAGSSGVTAGRPRPTARHWFQAGYSTSRAREAGASRAENQTAPGEVPALSNLRPPSRVDGMVG
